The target of this assay is fluorescently labelled recombinant HAUSP (UniProt Q93009). The assay can be described thus: other fluorescence titration; BODIPY FL-labelled HAUSP titrated with unlabeled PE_PGRS38; 25°C, 30 mM Tris pH 7.4, 150 mM NaCl, 1 mM dithiothreitol; fitted with Grafit.

The text below walks through data of paper PMC9095961.

In general, Kd refers to the constant that tells how readily two partners part at equilibrium.

UniProt Q93009, sequence (Q93009 whole entry): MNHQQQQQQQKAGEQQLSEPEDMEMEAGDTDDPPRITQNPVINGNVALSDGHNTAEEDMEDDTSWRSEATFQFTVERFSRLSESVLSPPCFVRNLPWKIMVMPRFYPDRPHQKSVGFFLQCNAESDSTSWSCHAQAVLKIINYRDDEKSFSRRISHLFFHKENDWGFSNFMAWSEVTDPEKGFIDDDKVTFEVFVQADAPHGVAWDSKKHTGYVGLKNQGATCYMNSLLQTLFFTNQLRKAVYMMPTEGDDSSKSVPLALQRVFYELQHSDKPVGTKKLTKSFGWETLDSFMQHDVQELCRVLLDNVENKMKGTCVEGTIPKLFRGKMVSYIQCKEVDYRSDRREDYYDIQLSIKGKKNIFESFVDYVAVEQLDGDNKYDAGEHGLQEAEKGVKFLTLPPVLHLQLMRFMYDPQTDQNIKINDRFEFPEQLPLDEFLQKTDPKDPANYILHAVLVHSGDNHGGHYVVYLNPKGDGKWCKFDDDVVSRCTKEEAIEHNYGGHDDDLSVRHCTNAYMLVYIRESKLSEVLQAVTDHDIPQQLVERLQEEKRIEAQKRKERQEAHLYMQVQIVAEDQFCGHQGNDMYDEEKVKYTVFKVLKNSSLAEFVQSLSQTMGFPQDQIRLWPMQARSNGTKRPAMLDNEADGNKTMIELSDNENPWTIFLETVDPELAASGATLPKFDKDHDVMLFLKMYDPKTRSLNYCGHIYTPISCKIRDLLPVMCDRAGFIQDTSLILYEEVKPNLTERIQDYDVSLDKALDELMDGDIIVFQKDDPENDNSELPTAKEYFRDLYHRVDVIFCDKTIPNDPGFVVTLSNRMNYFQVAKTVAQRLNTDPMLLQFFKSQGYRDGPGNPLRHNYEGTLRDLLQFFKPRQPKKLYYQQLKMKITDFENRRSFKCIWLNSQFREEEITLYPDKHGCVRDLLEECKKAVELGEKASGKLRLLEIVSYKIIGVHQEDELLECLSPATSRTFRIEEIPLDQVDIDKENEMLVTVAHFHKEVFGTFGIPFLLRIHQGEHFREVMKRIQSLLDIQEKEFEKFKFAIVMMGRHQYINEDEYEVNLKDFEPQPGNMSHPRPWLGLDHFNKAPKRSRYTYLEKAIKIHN

“recombinant PE_PGRS38 (from UniProt L7N6A1 1-532) (natural protein)”: the Kd turned out to be 143 nM.
